Experimental data as given in the supplement of paper PMC10567573.

B1: PLAGL1 (parent)
chain: CKDFLCQFCAQRFGRKDHLTRHTK
B2: TIA1 (parent)
chain: TYECRCIGEEKEMWNFGEKYARF

Variants of: B1
Experiment: protein stability index of a GFP-peptide fusion (GPS, HEK-293T) (PSI 1-6); higher = more stable
Conditions: c terminus: a fixed tail appended
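Also: lentivirally expressed fusions sorted by FACS into six bins by GFP to DsRed ratio, PSI derived from sequencing read proportions per bin multiplied by bin number.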

Protein stability index, by site and new letter:
C1: S 2.7; L 2.25; K 2.11; F 1.64; M 1.53; A 3.04; V 1.67; I 2.46; Q 2.11
F13: R 2.54; Q 2.45; Y 1.99; I 2.02; C 3.07; L 2.44; E 2.86; H 2.31; S 3.21
D17: R 2.37; Y 1.7; S 2.12; H 1.85; W 1.35; F 2.08; G 1.67; N 2.04; C 2.06; Q 1.92; I 2.52; A 2.28
K16: N 1.92; H 2.39; S 1.95; M 1.68; P 2.25; V 2.05; T 2.82
C9: P 3.17; K 2.42; F 1.11; M 1.79; H 2.11; Q 2.72; D 2.11; T 1.93; Y 1.47; N 2.58; A 2.05; S 2.03; E 2
L5: D 2.18; A 2.02; F 2.56; V 1.36; C 1.41; K 2.08; Y 1.82; T 1.81; E 2.07; I 1.69; R 1.43
A10: V 2.16; Y 2.16; P 2.03; R 2.14; F 1.96; D 1.87; T 1.96; G 1.79; M 1.65
F4: P 2.37; D 1.76; L 1.41; R 2.4; V 1.27; H 1.58; S 2.23; T 2.35; G 2.02; E 2.56; N 2.64; M 2.21; A 2.05
G14: W 1.77; T 2.09; C 2.37; N 2.46; Y 1.99; L 1.96; Q 1.98; S 2.72; I 2.08
T20: G 2.17; S 2.17; Y 1.82; E 2.29; Q 1.75; H 1.96; D 1.72; I 1.58
C6: P 2.38; W 1.78; E 2.63; F 1.78; Y 2.1; D 2.17; N 1.76; L 1.99; A 2.18; Q 2.34; S 1.58
D3: I 2.01; L 1.86; N 1.56; M 1.38; W 1.73; S 1.51; Y 2.11; A 1.57; R 1.81; H 2.07; G 2.38
Q7: S 1.76; Y 2.06; W 2.57; T 2.35; G 2.09; M 2.29; P 2.23; L 1.29; K 2.21
Q11: D 1.75; P 2.07; W 1.76; M 2.22; I 1.82; S 3.17; V 2.04; H 1.67; F 1.82; A 1.84
F8: G 2.32; L 2.89; P 2.47; V 2.18; M 2.19; C 3.64; A 2.94; N 2.82; Y 1.77; H 2.87; W 1.6; T 2.81; E 2.62
R12: D 1.65; I 2.6; N 2.22; F 1.68; E 2.13; T 1.88; V 2.33; W 2.14; S 2.16; Y 2
R15: K 2.52; G 2.36; I 1.91; A 1.82; H 1.85; T 1.93; S 1.73; Y 2.38; N 1.83; E 2.52
K24: T 2.24; I 2.08; Y 1.56; E 2.3; H 2.41; C 2.83; N 1.9; F 2.4; P 2.21; Q 2.25
L19: S 2.13; D 3.71; H 2.16; M 2.4; C 2.25; A 2.54; V 1.99; W 1.65; F 2.58
H18: E 1.96; C 2.6; A 2.51; T 2.25; N 1.97; G 1.95; L 1.33; D 1.68; P 1.75; S 1.82; F 1.49; R 2.35; Y 2.45
R21: W 2.16; E 2.48; Q 2.56; A 1.94; V 1.59; Y 1.85; P 2.1; H 1.87; L 2.1; N 2.53; S 1.3
H22: D 2.09; P 2.3; M 2.12; Q 1.77; F 1.65; Y 2.7; K 1.68; E 1.8; T 2.57; N 1.48; I 1.76
T23: I 2.4; P 1.76; A 2; H 2.02; C 2.17; Y 1.77; G 2.15
K2: H 2.46; S 1.74; N 2.02; V 1.53; T 2.09; F 2.35; I 1.78; R 2.74; Y 2.05; M 1.46; E 2.13

Variants of: B2
Experiment: as above
Conditions: c terminus: native

Protein stability index of substitutions, site by site:
R5: T 2.31; E 2.02; S 2.54; D 3.07; A 1.66; I 2.8; K 2.3; V 2.46; H 2.62; N 2.86; P 3.48; F 2.1; Y 1.35; W 1.98; L 2.29; Q 1.73; G 2.93; C 1.97
T1: K 1.83; Y 1.63; D 3.71; E 4.38; I 2.19; P 3.63; Q 2.35; V 1.8; C 1.23; N 3.21; L 1.7; H 2.31; W 1.68; G 2.27; M 3.02; A 2.54; S 2.51; R 1.68
Y2: N 3.75; A 2.94; F 4.21; E 4.79; S 3.2; W 4.98; K 3.51; L 3.66; I 3.31; P 3.99; G 4.38; R 3.07; T 4.18; V 3.16; H 2.44; M 2.88; D 4.27; C 3.3; Q 3.97
C6: A 2.92
E3: N 1.98; C 3.65; S 1.94; D 3.24; M 2.49; T 3.76; K 1.66; G 2.14; Q 2.61; P 2.47; L 2.42; A 2.23; R 1; Y 2.18; H 1.8
C4: M 2.62; Y 1.93; K 3.16; R 2.31; E 2.2; S 2.01; I 2.31; Q 1.67; W 1.91; F 2.28; H 3.33; T 2.31; N 2.31; P 3.81; V 1.88; L 2.85; A 3.13
